Measurements published in patent US20170115293A1.

Target: FAS (CD95, APO-1) death receptor (human) (UniProt P25445)
Assay: cell-based or functional assay

Chain of UniProt P25445 (P25445 26-335): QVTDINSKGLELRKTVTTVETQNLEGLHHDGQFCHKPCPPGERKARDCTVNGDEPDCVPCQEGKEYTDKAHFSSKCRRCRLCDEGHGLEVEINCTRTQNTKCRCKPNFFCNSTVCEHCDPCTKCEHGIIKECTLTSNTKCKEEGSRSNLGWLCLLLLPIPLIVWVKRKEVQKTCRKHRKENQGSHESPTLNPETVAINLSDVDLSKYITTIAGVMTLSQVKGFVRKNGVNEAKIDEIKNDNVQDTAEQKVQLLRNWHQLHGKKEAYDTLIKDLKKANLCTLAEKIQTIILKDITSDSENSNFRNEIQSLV

“CH11, a FAS agonistic (stimulating) antibody (monoclonal mouse antibody, cat. no. 05-201; EMD Millipore)” was tested. Which clonogenic cell survival of SUM159: radiation dose to achieve a surviving fraction of 0.1 did it give?
Its clonogenic cell survival of SUM159: radiation dose to achieve a surviving fraction of 0.1 is 3.25 Gy.

What about the clonogenic cell survival of SUM159 after irradiation: dose-modifying factor of the same substance?
The clonogenic cell survival of SUM159 after irradiation: dose-modifying factor was 2.5.
